Experimental data from publication PMC7260706.

Molecular target: T1, RelE (UniProt P0C077 1-95)
T1 sequence: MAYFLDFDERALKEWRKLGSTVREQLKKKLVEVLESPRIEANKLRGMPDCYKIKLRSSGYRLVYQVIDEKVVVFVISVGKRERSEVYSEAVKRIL
Experiment: intrinsic protein fluorescence

B1: unmodified mRNA (ssRNA)
RNA: GGCAAGGAGGUAAAAAUGUAGAAAAACAAU
B1: binds.
